Our source for the Kd values is the Immune Epitope Database (IEDB).

One assay deals with HLA-B*39:01. Nature of the assay: IEDB peptide-MHC binding, purified MHC/competitive/fluorescence; filed as Kd, often an IC50 or EC50 that approximates it; ≥ and ≤ were set here for values at or beyond the usual limits of such assays. Conditions: source organism: Vibrio vulnificus CMCP6.
For assay [1], the target named is HLA-A*29:02. Described as above. The following applies: source organism: Vibrio vulnificus CMCP6.
Another assay deals with HLA-B*14:02. The assay is described as above. The following applies: source organism: Vibrio vulnificus CMCP6.
The target in assay [2] is HLA-A*01:01. Described as above.
The next assay addresses HLA-A*30:01. The description is as above.
In assay [3] the target is HLA-A*11:01. The description is as above. The following applies: source organism: Vibrio vulnificus CMCP6.
Another assay has as its target HLA-B*53:01. Described as above. The following applies: source organism: Vibrio vulnificus CMCP6.
Assay [4] deals with HLA-B*07:02. The description is as above. Conditions: source organism: Vibrio vulnificus CMCP6.
In the next assay the target is HLA-B*44:02. Described as above. Conditions: source organism: Vibrio vulnificus CMCP6.
Another assay deals with HLA-B*18:01. The description is as above. Conditions: source organism: Vibrio vulnificus CMCP6.
The target of assay [5] is HLA-B*08:01. The assay is described as above.
Assay [6] deals with HLA-B*27:05. Described as above. Conditions: source organism: Vibrio vulnificus CMCP6.
The target of the next assay is HLA-A*66:01. Described as above. The following applies: source organism: Vibrio vulnificus CMCP6.
Assay [7] deals with HLA-A*02:01. The description is as above. The following applies: source organism: Vibrio vulnificus CMCP6.
The target in assay [8] is HLA-B*58:01. The description is as above. The following applies: source organism: Vibrio vulnificus CMCP6.
For the next assay, the target named is HLA-A*23:01. Described as above. The following applies: source organism: Vibrio vulnificus CMCP6.
In a further assay the target is HLA-B*51:01. In words: IEDB peptide-MHC binding, purified MHC/direct/fluorescence; filed as Kd, often an IC50 or EC50 that approximates it; ≥ and ≤ were set here for values at or beyond the usual limits of such assays. The following applies: source organism: Vibrio vulnificus CMCP6.
For the next assay, the target named is HLA-A*26:01. The description is as above.
The target in a further assay is HLA-B*40:01. Described as above.
Another assay has as its target HLA-A*02:12. The description is as above. The following applies: source organism: Vibrio vulnificus CMCP6.
Assay [9] has as its target HLA-B*57:01. The description is as above. Conditions: source organism: Vibrio vulnificus CMCP6.
The next assay has as its target HLA-A*02:06. The assay is described as above. The following applies: source organism: Vibrio vulnificus CMCP6.
In assay [10] the target is HLA-B*15:17. The description is as above. Conditions: source organism: Vibrio vulnificus CMCP6.
A further assay deals with HLA-A*24:03. The description is as above. Conditions: source organism: Vibrio vulnificus CMCP6.
Another assay deals with HLA-A*03:01. Described as above.
Assay [11] deals with HLA-B*15:01. Nature of the assay: IEDB peptide-MHC binding, purified MHC/competitive/fluorescence; filed as Kd, often an IC50 or EC50 that approximates it; ≥ and ≤ were set here for values at or beyond the usual limits of such assays. Conditions: source organism: Human immunodeficiency virus type 1 (MAL ISOLATE).
Another assay has as its target HLA-B*38:01. The description is as above. Conditions: source organism: Human immunodeficiency virus type 1 (MAL ISOLATE).
The target of assay [12] is HLA-B*15:17. The assay is described as above. The following applies: source organism: Human immunodeficiency virus type 1 (MAL ISOLATE).
For a further assay, the target named is HLA-B*15:09. Described as above. The following applies: source organism: Human immunodeficiency virus type 1 (MAL ISOLATE).
Assay [13] deals with HLA-A*29:02. In words: IEDB peptide-MHC binding, purified MHC/competitive/radioactivity; filed as Kd, often an IC50 or EC50 that approximates it; ≥ and ≤ were set here for values at or beyond the usual limits of such assays. The following applies: source organism: Homo sapiens.
For assay [14], the target named is HLA-B*57:01. Described as above. The following applies: source organism: Homo sapiens.
A further assay concerns the target HLA-A*02:07. Described as above. Conditions: source organism: Homo sapiens.
Assay [15] deals with HLA-A*02:01. Described as above. The following applies: source organism: Homo sapiens.
In assay [16] the target is HLA-B*58:01. The assay is described as above. The following applies: source organism: Homo sapiens.
In the next assay the target is HLA-B*35:01. In words: IEDB peptide-MHC binding, purified MHC/direct/fluorescence; filed as Kd, often an IC50 or EC50 that approximates it; ≥ and ≤ were set here for values at or beyond the usual limits of such assays. Conditions: source organism: Escherichia coli.
The target in assay [17] is HLA-A*01:01. The description is as above. Conditions: source organism: Escherichia coli.
The target of assay [18] is HLA-B*15:01. The description is as above. Conditions: source organism: Escherichia coli.
The target in assay [19] is HLA-A*11:01. The description is as above. The following applies: source organism: Escherichia coli.
The target of another assay is HLA-A*31:01. Described as above. The following applies: source organism: Escherichia coli.
For assay [20], the target named is HLA-B*07:02. The assay is described as above. The following applies: source organism: Escherichia coli.
In assay [21] the target is HLA-B*08:01. The description is as above. The following applies: source organism: Escherichia coli.
The target of the next assay is HLA-B*15:02. The assay is described as above. Conditions: source organism: Salmonella enterica subsp. enterica serovar Dublin.
In assay [22] the target is HLA-B*27:05. The description is as above. The following applies: source organism: Escherichia coli.
In another assay the target is HLA-A*69:01. The assay is described as above. Conditions: source organism: Escherichia coli.
Assay [23] has as its target HLA-A*02:01. The assay is described as above. Conditions: source organism: Escherichia coli.
[24] abbreviates: source organism: Vibrio vulnificus CMCP6.
[25] abbreviates: source organism: Human immunodeficiency virus type 1 (MAL ISOLATE).
The mark [26] stands for this setting: source organism: Escherichia coli.

By Kd is commonly meant a measure of binding affinity in units of concentration. On to KQIVIINPM, for which the Kd with HLA-B*39:01, with HLA-A*29:02 [1], with HLA-B*14:02, with HLA-A*01:01 [2] (setting [24]), with HLA-A*30:01 (setting [24]) and with HLA-A*11:01 [3] was at least 5 µM each time. The Kd in the assay with HLA-B*53:01 was at least 5 µM; in the assay with HLA-B*07:02 [4], at least 5 µM; in the assay with HLA-B*44:02, at least 5 µM; in the assay with HLA-B*18:01, at least 5 µM; with HLA-B*08:01 [5] (setting [24]), at least 5 µM; with HLA-B*27:05 [6], 0.0389 µM. Also, the Kd was at least 5 µM with HLA-A*66:01; at least 5 µM with HLA-A*02:01 [7]; at least 5 µM with HLA-B*58:01 [8]; at least 5 µM with HLA-A*23:01; at least 20 µM with HLA-B*51:01; at least 20 µM in the assay with HLA-A*26:01 (setting [24]). Further, the Kd with HLA-B*40:01 (setting [24]) was 0.238 µM; with HLA-A*02:12, 0.064 µM; in the assay with HLA-B*57:01 [9] it was at least 20 µM; in the assay with HLA-A*02:06 it was 0.002 µM; in the assay with HLA-B*15:17 [10], at least 20 µM; with HLA-A*24:03 it was 0.135 µM. Moreover, in the assay with HLA-A*03:01 (setting [24]), the Kd is at least 20 µM.
For GSEEIKSLY, the Kd in the assay with HLA-A*01:01 [2] (setting [25]) was 0.0503 µM; with HLA-A*30:01 (setting [25]) it was at least 20 µM; with HLA-B*15:01 [11], 1.07 µM; in the assay with HLA-B*08:01 [5] (setting [25]), at least 20 µM; with HLA-B*38:01, at least 20 µM; with HLA-B*15:17 [12], 0.0989 µM. This sequence yielded a Kd with HLA-B*15:09 of at least 20 µM.
With YMIDPSGVSY, the Kd with HLA-A*29:02 [13] was 0.0193 µM; with HLA-B*57:01 [14] it was at least 31.6 µM; in the assay with HLA-A*02:07, 12.7 µM; with HLA-A*02:01 [15] it was 0.651 µM; with HLA-B*58:01 [16], 0.589 µM.
Consider SSMNSDAAY, for which the Kd was 0.0115 µM in the assay with HLA-B*35:01; 0.171 µM in the assay with HLA-A*01:01 [17]; 0.15 µM with HLA-B*15:01 [18]; 0.144 µM in the assay with HLA-A*11:01 [19]; at least 20 µM with HLA-A*31:01; 0.0276 µM with HLA-A*26:01 (setting [26]). Also, the Kd is at least 20 µM in the assay with HLA-B*07:02 [20]; at least 20 µM with HLA-B*40:01 (setting [26]); at least 20 µM with HLA-B*08:01 [21]; 0.026 µM in the assay with HLA-B*15:02; at least 20 µM with HLA-B*27:05 [22]; at least 20 µM in the assay with HLA-A*69:01. Also, the dissociation constant (Kd) in the assay with HLA-A*02:01 [23] and with HLA-A*03:01 (setting [26]) was at least 20 µM in each case.
